The stoichiometry N is a count of units in the complex or per binding partner.

This note sets out measurements from article PMC7877911 (eLife, 2021).

The target of test [1] is T3 SAMase (Enterobacteria phage T3, UniProt P07693). The note with it: 2 mM SAM, 50 mM NaPi pH 7.4, 25°C.
For test [2], the target named is Svi3-3_d19 E105Q (environmental phage). Put plainly: SEC; HiLoad 16/60 Superdex 75 pg, 25 mM Tris-HCl, 150 mM NaCl, pH 8.0; His-tagged protein eluted from Ni Sepharose. (In gel filtration, larger molecules generally elute earlier.)
Test [3] has as its target Svi3-3_d19 (N-terminally truncated 146 amino acid construct of SAMase Svi3-3, hexahistidine tag removed) (environmental phage). Briefly: crystal structure; Svi3-3_d19 (10 mg/ml) crystallised with 5 mM SAM (product MTA bound), with 5 mM SAH, or without ligand; sitting drop, 293 K, 0.4-0.6 M ammonium phosphate; space group F4(1)32, one monomer in the asymmetric unit, trimer around the threefold crystallographic axis.

Test [4] concerns the target His6-tagged Svi3-3_d19 (environmental phage). Put plainly: SEC; HiLoad 16/60 Superdex 75 pg, 25 mM Tris-HCl, 150 mM NaCl, pH 8.0; His-tagged protein eluted from Ni Sepharose.
Test [5] has the same target. Put plainly: SEC-SAXS; His6-tagged Svi3-3_d19 at 10-13 mg/ml with and without 5 mM SAM; Shodex KW403 column, 25 mM Tris-HCl pH 8.0, 150 mM NaCl.
Test [6] addresses Svi3-3_d19 E69Q (environmental phage). Put plainly: SEC; HiLoad 16/60 Superdex 75 pg, 25 mM Tris-HCl, 150 mM NaCl, pH 8.0; His-tagged protein eluted from Ni Sepharose.
The target in test [7] is Svi3-3_d19 E69A (environmental phage). The test is described as above.

Sequence of T3 SAMase (P07693 whole entry): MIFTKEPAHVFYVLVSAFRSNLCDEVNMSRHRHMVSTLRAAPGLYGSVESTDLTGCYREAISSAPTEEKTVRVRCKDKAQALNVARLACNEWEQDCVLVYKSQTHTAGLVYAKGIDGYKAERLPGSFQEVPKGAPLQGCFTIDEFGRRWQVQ

Consider `C[S+](CC[C@H](N)C(=O)O)C[C@H]1O[C@@H](n2cnc3c(N)ncnc32)[C@H](O)[C@@H]1O` (stereo partly drawn) [SAM, S-(5’-Adenosyl)-L-methionine], for which, in test [1], the “TLC of reaction products; ion exchange chromatography” value is “The same assay was performed with T3 SAMase and Orf1”.
The compound Svi3-3_d19 E105Q (enzyme) returned a stoichiometry N in test [2] of 3.
With “Svi3-3_d19 (N-terminally truncated 146 amino acid construct of SAMase Svi3-3, hexahistidine tag removed) (enzyme)”, the stoichiometry N in test [3] turned out to be 3.
As for His6-tagged Svi3-3_d19 (enzyme), the stoichiometry N in test [4] and in test [5] was 3 throughout.
With Svi3-3_d19 E69Q (enzyme), the stoichiometry N in test [6] worked out at 3.
For Svi3-3_d19 E69A (enzyme), in test [7], the stoichiometry N is 3.
